Legend:
[1] = biological target: T1, human CST complex (Flag-CTC1-STN1-TEN1-His6) (human, UniProt Q2NKJ3 1-1217; Q9H668 1-368; Q86WV5 1-123); experiment: pull-down; 1 μM CST or CTC1Δ700N-ST (His6 on TEN1) with 1 μM RAD51, RecA or RPA, 20 min 37 °C, buffer D (35 mM Tris-HCl pH 7.5, 10% glycerol, 0.01% Igepal, 1 mM 2-mercaptoethanol) with 5 mM imidazole and 50 mM KCl; for RPA without DNA or with 2 μM 30-nt ssDNA; captured on His-Tag Dynabeads; SDS-PAGE, Coomassie; settings: both partners purified
T1 construct: CTC1, human, subunit of the CST complex; STN1, human, subunit of the CST complex; TEN1, human, subunit of the CST complex; also called wild-type CST; not shown: Flag, N-terminal, kept; His6, C-terminal, kept; copies: + +

[2] = biological target: T2, CTC1Δ700N-ST complex (CTC1 lacking its N-terminal 700 residues, with STN1 and TEN1-His6) (human, UniProt Q2NKJ3 701-1217; Q9H668 1-368; Q86WV5 1-123); experiment: as above; settings: both partners purified
T2 construct: CTC1, human, with the N-terminal 700 residues removed (CTC1Δ700N); STN1, human, subunit of the CST complex; TEN1, human, subunit of the CST complex; also called CTC1∆700N-ST; not shown: His6, C-terminal, kept; copies: + +
T2 sequence (looked up) 1: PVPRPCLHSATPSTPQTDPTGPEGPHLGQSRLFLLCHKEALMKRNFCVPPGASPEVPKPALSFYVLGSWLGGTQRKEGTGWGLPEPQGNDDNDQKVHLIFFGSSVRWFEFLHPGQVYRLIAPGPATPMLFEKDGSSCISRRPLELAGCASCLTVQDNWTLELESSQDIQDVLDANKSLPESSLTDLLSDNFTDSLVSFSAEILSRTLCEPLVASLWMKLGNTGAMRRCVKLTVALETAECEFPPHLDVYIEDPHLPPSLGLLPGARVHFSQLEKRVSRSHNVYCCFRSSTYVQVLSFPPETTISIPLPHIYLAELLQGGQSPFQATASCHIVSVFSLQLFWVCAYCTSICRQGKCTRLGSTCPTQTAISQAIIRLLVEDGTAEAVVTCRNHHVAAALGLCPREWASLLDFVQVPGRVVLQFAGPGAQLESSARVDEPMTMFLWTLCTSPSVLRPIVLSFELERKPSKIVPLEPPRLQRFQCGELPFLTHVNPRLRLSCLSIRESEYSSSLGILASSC
T2 sequence (looked up) 2: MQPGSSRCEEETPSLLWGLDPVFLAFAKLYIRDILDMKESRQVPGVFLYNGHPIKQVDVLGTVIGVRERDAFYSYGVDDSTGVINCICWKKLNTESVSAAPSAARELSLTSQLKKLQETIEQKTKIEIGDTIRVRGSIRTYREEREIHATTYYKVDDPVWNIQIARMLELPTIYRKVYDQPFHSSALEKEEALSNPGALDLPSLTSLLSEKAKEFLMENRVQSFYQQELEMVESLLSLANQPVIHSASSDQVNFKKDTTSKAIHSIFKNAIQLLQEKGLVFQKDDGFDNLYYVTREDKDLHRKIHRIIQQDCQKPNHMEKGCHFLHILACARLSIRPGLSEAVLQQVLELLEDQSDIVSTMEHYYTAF
T2 sequence (looked up) 3: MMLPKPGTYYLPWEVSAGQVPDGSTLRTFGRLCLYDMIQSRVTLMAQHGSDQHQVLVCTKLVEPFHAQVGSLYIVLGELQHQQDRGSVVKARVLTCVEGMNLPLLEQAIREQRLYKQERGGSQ

binding result [1]: binds
binding result [2]: binds
B1: human RAD51 (natural protein, UniProt Q06609 1-339, looked up)
chain: MAMQMQLEANADTSVEEESFGPQPISRLEQCGINANDVKKLEEAGFHTVEAVAYAPKKELINIKGISEAKADKILAEAAKLVPMGFTTATEFHQRRSEIIQITTGSKELDKLLQGGIETGSITEMFGEFRTGKTQICHTLAVTCQLPIDRGGGEGKAMYIDTEGTFRPERLLAVAERYGLSGSDVLDNVAYARAFNTDHQTQLLYQASAMMVESRYALLIVDSATALYRTDYSGRGELSARQMHLARFLRMLLRLADEFGVAVVITNQVVAQVDGAAMFAADPKKPIGGNIIAHASTTRLYLRKGRGETRICKIYDSPCLPEAEAMFAINADGVGDAKD
notes: RAD51 recombinase, human
